Laboratory results from paper PMC4191397.

Columns and labels:
[1] = molecular target: T1, NS3h (NS3 helicase domain) (Dengue virus serotype 2 (infectious …, UniProt O09234 1646-2093)); assay: fluorescence titration
[2] = molecular target: T1, NS3h (NS3 helicase domain); assay: competition
[3] = molecular target: T1, NS3h (NS3 helicase domain); assay: competition; remark: listed apart in the source
[4] = molecular target: T1, NS3h (NS3 helicase domain); assay: competition; remark: listed apart in the source
[5] = molecular target: T1, NS3h (NS3 helicase domain); assay: competition; remark: listed apart in the source
[6] = molecular target: T1, NS3h (NS3 helicase domain); assay: EMSA

Q: How did the Ka [1] turn out when AGUUGAGUUG (ssRNA) [F-p-R10] was run?
A: 11.3 ± 0.1 10^6 M-1

Q: With AGUUGAGUUG (ssRNA) [R10] as the binder, how does the Ka [2] read?
A: 1.69 ± 0.04 10^6 M-1

Q: How did the Ka [2] turn out when AGUUGAGUUGAG (ssRNA) [R12] was run?
A: 2.64 ± 0.06 10^6 M-1

Q: With AGUUGAGUUGAGUUG (ssRNA) [R15] as the binder, how does the Ka [2] read?
A: 7.4 ± 0.2 10^6 M-1

Q: For AGUUGAGUUGAGUUGAGU (ssRNA) [R18], which Ka [2] is on record?
A: 11.5 ± 0.3 10^6 M-1

Q: Which results are given for AGUUGAGUUGAGUUGAGUUG (ssRNA) [R20]?
A: Ka [3]: 16.7 ± 0.7 10^6 M-1; Ka [4]: 0.6 ± 0.1 10^6 M-1

Q: Which Ka [1] does the source give for AGUUGAGUUGAG (ssRNA) [F-p-R12] here?
A: 20.8 ± 0.5 10^6 M-1

Q: Does UUUUUUUUUUUU (ssRNA) [(U)12] bind [5]?
A: no binding

Q: Does AGTTGAGTTGAGTTGAGTTG (ssDNA) [F-p-D20] bind [6]?
A: no binding
